Test results from patent US20240279278A1, “NMU RECEPTOR 2 AGONISTS” (Boehringer Ingelheim International GmbH, priority 2023, published 2024).

T1: human neuromedin U receptor 1 (human, UniProt Q9HB89 24-426)
T1 sequence (looked up): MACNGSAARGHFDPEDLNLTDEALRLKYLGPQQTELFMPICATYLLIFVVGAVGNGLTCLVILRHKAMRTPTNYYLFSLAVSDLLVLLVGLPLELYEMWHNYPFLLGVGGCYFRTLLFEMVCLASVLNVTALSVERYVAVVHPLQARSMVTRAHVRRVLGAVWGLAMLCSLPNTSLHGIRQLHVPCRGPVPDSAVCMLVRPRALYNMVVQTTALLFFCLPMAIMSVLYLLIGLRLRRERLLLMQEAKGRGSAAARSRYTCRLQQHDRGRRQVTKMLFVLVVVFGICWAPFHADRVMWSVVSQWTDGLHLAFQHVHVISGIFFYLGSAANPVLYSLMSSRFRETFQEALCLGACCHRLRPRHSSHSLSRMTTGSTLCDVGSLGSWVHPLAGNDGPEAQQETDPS


target: T1, human neuromedin U receptor 1; experiment: cell-based or functional assay

| Binder | EC50 (hNMUR1) buffer [nM] |
| --- | --- |
| EEEEXXXXXXXXXXXXXYFLXXPRG (HELM PEPTIDE1{[O=C(O)CCCCCCCCCCCCCCCCCCC(=O)[*:2]].[gGlu].[gGlu].[gGlu].[gGlu].[Sar].[Sar].[Sar].[Sar].[Sar].[Sar].[Sar].[Sar].[Sar].[Sar].[Sar].[Sar].[O=C(CN1CCN(CCN[*:1])CC1)[*:2]].Y.F.[meL].[Nle].[Dab].P.R.G.[am]}$$$$V2.0; SMILES CCCC[C@H](NC(=O)[C@H](CC(C)C)N(C)C(=O)[C@H](Cc1ccccc1)NC(=O)[C@H](Cc1ccc(O)cc1)NC(=O)CN1CCN(CCNC(=O)CN(C)C(=O)CN(C)C(=O)CN(C)C(=O)CN(C)C(=O)CN(C)C(=O)CN(C)C(=O)CN(C)C(=O)CN(C)C(=O)CN(C)C(=O)CN(C)C(=O)CN(C)C(=O)CN(C)C(=O)CC[C@H](NC(=O)CC[C@H](NC(=O)CC[C@H](NC(=O)CC[C@H](NC(=O)CCCCCCCCCCCCCCCCCCC(=O)O)C(=O)O)C(=O)O)C(=O)O)C(=O)O)CC1)C(=O)N[C@@H](CCN)C(=O)N1CCC[C@H]1C(=O)N[C@@H](CCCNC(=N)N)C(=O)NCC(N)=O) [C20DA-gGlu4-Sar12-AEPipAc-Tyr-Phe-NMeLeu-Nle-Dbu-Pro-Arg-Gly-NH2] | 860 |
| EEEEXXXXXXXXXXXXXXXXYFLXXARG (HELM PEPTIDE1{[O=C(O)CCCCCCCCCCCCCCCCCCC(=O)[*:2]].[gGlu].[gGlu].[gGlu].[gGlu].[Sar].[Sar].[Sar].[Sar].[Sar].[Sar].[Sar].[Sar].[Sar].[Sar].[Sar].[Sar].[Sar].[Sar].[Sar].[O=C(CN1CCN(CCN[*:1])CC1)[*:2]].Y.F.[meL].[Nle].[Dab].[meA].R.G.[am]}$$$$V2.0; SMILES CCCC[C@H](NC(=O)[C@H](CC(C)C)N(C)C(=O)[C@H](Cc1ccccc1)NC(=O)[C@H](Cc1ccc(O)cc1)NC(=O)CN1CCN(CCNC(=O)CN(C)C(=O)CN(C)C(=O)CN(C)C(=O)CN(C)C(=O)CN(C)C(=O)CN(C)C(=O)CN(C)C(=O)CN(C)C(=O)CN(C)C(=O)CN(C)C(=O)CN(C)C(=O)CN(C)C(=O)CN(C)C(=O)CN(C)C(=O)CN(C)C(=O)CC[C@H](NC(=O)CC[C@H](NC(=O)CC[C@H](NC(=O)CC[C@H](NC(=O)CCCCCCCCCCCCCCCCCCC(=O)O)C(=O)O)C(=O)O)C(=O)O)C(=O)O)CC1)C(=O)N[C@@H](CCN)C(=O)N(C)[C@@H](C)C(=O)N[C@@H](CCCNC(=N)N)C(=O)NCC(N)=O) [C20DA-gGlu4-Sar15-AEPipAc-Tyr-Phe-NMeLeu-Nle-Dbu-NMeAla-Arg-Gly-NH2] | > 1000 |
| EEEEXXXXXXXXXXXXXXXXYFLXKPRG (HELM PEPTIDE1{[O=C(O)CCCCCCCCCCCCCCCCCCC(=O)[*:2]].[gGlu].[gGlu].[gGlu].[gGlu].[Sar].[Sar].[Sar].[Sar].[Sar].[Sar].[Sar].[Sar].[Sar].[Sar].[Sar].[Sar].[Sar].[Sar].[Sar].[O=C(CN1CCN(CCN[*:1])CC1)[*:2]].Y.F.[meL].[Nle].K.P.R.G.[am]}$$$$V2.0; SMILES CCCC[C@H](NC(=O)[C@H](CC(C)C)N(C)C(=O)[C@H](Cc1ccccc1)NC(=O)[C@H](Cc1ccc(O)cc1)NC(=O)CN1CCN(CCNC(=O)CN(C)C(=O)CN(C)C(=O)CN(C)C(=O)CN(C)C(=O)CN(C)C(=O)CN(C)C(=O)CN(C)C(=O)CN(C)C(=O)CN(C)C(=O)CN(C)C(=O)CN(C)C(=O)CN(C)C(=O)CN(C)C(=O)CN(C)C(=O)CN(C)C(=O)CC[C@H](NC(=O)CC[C@H](NC(=O)CC[C@H](NC(=O)CC[C@H](NC(=O)CCCCCCCCCCCCCCCCCCC(=O)O)C(=O)O)C(=O)O)C(=O)O)C(=O)O)CC1)C(=O)N[C@@H](CCCCN)C(=O)N1CCC[C@H]1C(=O)N[C@@H](CCCNC(=N)N)C(=O)NCC(N)=O) [C20DA-gGlu4-Sar15-AEPipAc-Tyr-Phe-NMeLeu-Nle-Lys-Pro-Arg-Gly-NH2] | 610 |
| EEEEXXXXXXXXXXXXXXXXYFLXKARG (HELM PEPTIDE1{[O=C(O)CCCCCCCCCCCCCCCCCCC(=O)[*:2]].[gGlu].[gGlu].[gGlu].[gGlu].[Sar].[Sar].[Sar].[Sar].[Sar].[Sar].[Sar].[Sar].[Sar].[Sar].[Sar].[Sar].[Sar].[Sar].[Sar].[O=C(CN1CCN(CCN[*:1])CC1)[*:2]].Y.F.[meL].[Nle].K.[meA].R.G.[am]}$$$$V2.0; SMILES CCCC[C@H](NC(=O)[C@H](CC(C)C)N(C)C(=O)[C@H](Cc1ccccc1)NC(=O)[C@H](Cc1ccc(O)cc1)NC(=O)CN1CCN(CCNC(=O)CN(C)C(=O)CN(C)C(=O)CN(C)C(=O)CN(C)C(=O)CN(C)C(=O)CN(C)C(=O)CN(C)C(=O)CN(C)C(=O)CN(C)C(=O)CN(C)C(=O)CN(C)C(=O)CN(C)C(=O)CN(C)C(=O)CN(C)C(=O)CN(C)C(=O)CC[C@H](NC(=O)CC[C@H](NC(=O)CC[C@H](NC(=O)CC[C@H](NC(=O)CCCCCCCCCCCCCCCCCCC(=O)O)C(=O)O)C(=O)O)C(=O)O)C(=O)O)CC1)C(=O)N[C@@H](CCCCN)C(=O)N(C)[C@@H](C)C(=O)N[C@@H](CCCNC(=N)N)C(=O)NCC(N)=O) [C20DA-gGlu4-Sar15-AEPipAc-Tyr-Phe-NMeLeu-Nle-Lys-NMeAla-Arg-Gly-NH2] | > 1000 |
| EEEEXXXXXXXXXXXXXYFLXKARG (HELM PEPTIDE1{[O=C(O)CCCCCCCCCCCCCCCCCCC(=O)[*:2]].[gGlu].[gGlu].[gGlu].[gGlu].[Sar].[Sar].[Sar].[Sar].[Sar].[Sar].[Sar].[Sar].[Sar].[Sar].[Sar].[Sar].[O=C(CN1CCN(CCN[*:1])CC1)[*:2]].Y.F.[meL].[Nle].K.[meA].R.G.[am]}$$$$V2.0; SMILES CCCC[C@H](NC(=O)[C@H](CC(C)C)N(C)C(=O)[C@H](Cc1ccccc1)NC(=O)[C@H](Cc1ccc(O)cc1)NC(=O)CN1CCN(CCNC(=O)CN(C)C(=O)CN(C)C(=O)CN(C)C(=O)CN(C)C(=O)CN(C)C(=O)CN(C)C(=O)CN(C)C(=O)CN(C)C(=O)CN(C)C(=O)CN(C)C(=O)CN(C)C(=O)CN(C)C(=O)CC[C@H](NC(=O)CC[C@H](NC(=O)CC[C@H](NC(=O)CC[C@H](NC(=O)CCCCCCCCCCCCCCCCCCC(=O)O)C(=O)O)C(=O)O)C(=O)O)C(=O)O)CC1)C(=O)N[C@@H](CCCCN)C(=O)N(C)[C@@H](C)C(=O)N[C@@H](CCCNC(=N)N)C(=O)NCC(N)=O) [C20DA-gGlu4-Sar12-AEPipAc-Tyr-Phe-NMeLeu-Nle-Lys-NMeAla-Arg-Gly-NH2] | 1400 |
| EEEEXXXXXXXXXXXXXXXXYFLXXPRG (HELM PEPTIDE1{[O=C(O)CCCCCCCCCCCCCCCCCCC(=O)[*:2]].[gGlu].[gGlu].[gGlu].[gGlu].[Sar].[Sar].[Sar].[Sar].[Sar].[Sar].[Sar].[Sar].[Sar].[Sar].[Sar].[Sar].[Sar].[Sar].[Sar].[O=C(CN1CCN(CCN[*:1])CC1)[*:2]].Y.F.[meL].[Nle].[Orn].P.R.G.[am]}$$$$V2.0; SMILES CCCC[C@H](NC(=O)[C@H](CC(C)C)N(C)C(=O)[C@H](Cc1ccccc1)NC(=O)[C@H](Cc1ccc(O)cc1)NC(=O)CN1CCN(CCNC(=O)CN(C)C(=O)CN(C)C(=O)CN(C)C(=O)CN(C)C(=O)CN(C)C(=O)CN(C)C(=O)CN(C)C(=O)CN(C)C(=O)CN(C)C(=O)CN(C)C(=O)CN(C)C(=O)CN(C)C(=O)CN(C)C(=O)CN(C)C(=O)CN(C)C(=O)CC[C@H](NC(=O)CC[C@H](NC(=O)CC[C@H](NC(=O)CC[C@H](NC(=O)CCCCCCCCCCCCCCCCCCC(=O)O)C(=O)O)C(=O)O)C(=O)O)C(=O)O)CC1)C(=O)N[C@@H](CCCN)C(=O)N1CCC[C@H]1C(=O)N[C@@H](CCCNC(=N)N)C(=O)NCC(N)=O) [C20DA-gGlu4-Sar15-AEPipAc-Tyr-Phe-NMeLeu-Nle-Orn-Pro-Arg-Gly-NH2] | 440 |
| EEEXXXXXXXXXXXXXXXXYFLXXGRG (HELM PEPTIDE1{[O=C(O)CCCCCCCCCCCCCCCCCCC(=O)[*:2]].[gGlu].[gGlu].[gGlu].[Sar].[Sar].[Sar].[Sar].[Sar].[Sar].[Sar].[Sar].[Sar].[Sar].[Sar].[Sar].[Sar].[Sar].[Sar].[O=C(CN1CCN(CCN[*:1])CC1)[*:2]].Y.F.[meL].[Nle].[Orn].G.R.G.[am]}$$$$V2.0; SMILES CCCC[C@H](NC(=O)[C@H](CC(C)C)N(C)C(=O)[C@H](Cc1ccccc1)NC(=O)[C@H](Cc1ccc(O)cc1)NC(=O)CN1CCN(CCNC(=O)CN(C)C(=O)CN(C)C(=O)CN(C)C(=O)CN(C)C(=O)CN(C)C(=O)CN(C)C(=O)CN(C)C(=O)CN(C)C(=O)CN(C)C(=O)CN(C)C(=O)CN(C)C(=O)CN(C)C(=O)CN(C)C(=O)CN(C)C(=O)CN(C)C(=O)CC[C@H](NC(=O)CC[C@H](NC(=O)CC[C@H](NC(=O)CCCCCCCCCCCCCCCCCCC(=O)O)C(=O)O)C(=O)O)C(=O)O)CC1)C(=O)N[C@@H](CCCN)C(=O)NCC(=O)N[C@@H](CCCNC(=N)N)C(=O)NCC(N)=O) [C20DA-gGlu3-Sar15-AEPipAc-Tyr-Phe-NMeLeu-Nle-Orn-Gly-Arg-Gly-NH2] | > 1000 |
| EEEXXXXXXXXXXXXXXXXYFLXXXRG (HELM PEPTIDE1{[O=C(O)CCCCCCCCCCCCCCCCCCC(=O)[*:2]].[gGlu].[gGlu].[gGlu].[Sar].[Sar].[Sar].[Sar].[Sar].[Sar].[Sar].[Sar].[Sar].[Sar].[Sar].[Sar].[Sar].[Sar].[Sar].[O=C(CN1CCN(CCN[*:1])CC1)[*:2]].Y.F.[meL].[Nle].[Orn].[bAla].R.G.[am]}$$$$V2.0; SMILES CCCC[C@H](NC(=O)[C@H](CC(C)C)N(C)C(=O)[C@H](Cc1ccccc1)NC(=O)[C@H](Cc1ccc(O)cc1)NC(=O)CN1CCN(CCNC(=O)CN(C)C(=O)CN(C)C(=O)CN(C)C(=O)CN(C)C(=O)CN(C)C(=O)CN(C)C(=O)CN(C)C(=O)CN(C)C(=O)CN(C)C(=O)CN(C)C(=O)CN(C)C(=O)CN(C)C(=O)CN(C)C(=O)CN(C)C(=O)CN(C)C(=O)CC[C@H](NC(=O)CC[C@H](NC(=O)CC[C@H](NC(=O)CCCCCCCCCCCCCCCCCCC(=O)O)C(=O)O)C(=O)O)C(=O)O)CC1)C(=O)N[C@@H](CCCN)C(=O)NCCC(=O)N[C@@H](CCCNC(=N)N)C(=O)NCC(N)=O) [C20DA-gGlu3-Sar15-AEPipAc-Tyr-Phe-NMeLeu-Nle-Orn-bAla-Arg-Gly-NH2] | > 1000 |
